“Also recorded” adds a separate entry of the source.
Key:
[1] = test system: corneal epithelial cells; assay: Detachment of corneal epithelial cells (H & E staining), mouse dry eye model; assay type: in vivo, C57BL/6; details: after 16 days of drug treatment, regardless of concentration
Experimental: On the 2nd day after 16 days of drug treatment, eyes were enucleated and paraffin blocked, and tissue was stained by hematoxylin and eosin (H & E) staining on a prepared slide (FIG. 9A). The number of detached corneal epithelial cells was measured and quantified (FIG. 9B).

[2] = test system: human corneal epithelial cells; assay: Scratch wound healing (cell proliferation and migration) under high osmotic pressure; assay type: cell-based; details: HCEC, 450 mOsM
Experimental: The human corneal epithelial cells were seeded onto 24 wells and incubated for 24 hours under low osmotic pressure conditions (314 mOsM). Then, after replacing the culture medium with a high osmotic pressure medium (450 mOsM), the cells were incubated for 48 hours. Then, the surface of the Petri dish was vertically scratched and washed twice, and then the culture medium was replaced with the high osmotic pressure medium again and simultaneously the cells were treated with different concentrations of the HAPLN1 protein-containing composition of the present disclosure (FIG. 2A). A reduction in the scratched area was confirmed by obtaining photographs using a microscope at a time of scratching (0 h) and after 30 hours (FIG. 2B). This was imaged and a ratio of an area filled with cells to an initial area was identified by using ImageJ (FIG. 2C).

[3] = test system: inflammatory factors (Interleukins, CCL/CXCL family, Chitinase 3-like 1) in human corneal epithelial cells; assay: Human XL cytokine array of culture broth under high osmotic pressure; assay type: cell-based; details: HCEC, 450 mOsM, 24 hours
Experimental: As one of the effects the HAPLN1 protein-containing composition of the present disclosure on the relief of dry eye disease, an effect on the relief of inflammation was verified by using Human XL cytokine array (R&D Systems. ARY022B) based on expression levels of inflammatory factors (Interleukins, CCL/CXCL family, and […]).
First, the human corneal epithelial cells after 4th passage were seeded onto 6 wells and incubated for 24 hours under low osmotic pressure conditions (314 mOsM). Subsequently, the cells were incubated under high osmotic pressure conditions (450 mOsM) for 48 hours and treated with different concentrations (i.e., 10 μg/ml HAPLN 1 μl to 1 ml media->working concentration of 10 ng/ml) of the composition according to the present disclosure. Then, the cells were further incubated for 24 hours, and the culture broth was recovered therefrom, followed by an assay on the expression level of each marker by using Human XL cytokine array (R&D Systems. ARY022B). According to each of the graphs of FIG. 3B illustrating relative expression levels of the markers of the inflammatory factors in the different concentrations of the HAPLN1 protein, it was confirmed that secretion of inflammatory factors such as IL-6, IL-17A, CCL20, CXCL10, CCL5, CD54, and CD176 increased under the high osmotic pressure conditions (450 mOsM).

[4] = test system: rabbit dry eye model; assay: Tear film break up time (TFBUT), benzalkonium chloride-induced dry eye disease model; assay type: in vivo, New Zealand white rabbits
Experimental: One drop (0.05 ml) of 0.1% benzalkonium chloride (BAC) was administered to both eyes of rabbits twice a day (9:00 and 17:00) for 14 days, and then induction of dry eye was identified by examination of eyes, and the rabbits were classified into groups.
The test substance was dropped into the groups of the rabbit model twice a day (8:30 and 16:30) (Day 15 to 30 (total of 16 days)).
Anesthesia was induced by intramuscular injection of Xylazine and Ketamine, and then one drop of Alcaine Eye Drop was administered and tear and the eye drop remaining therein were removed by using Weck-cel cellulose spear. After putting STT paper on the lower eyelid, a length of a wet region for 5 minutes was measured (STT-2). In addition, stability of the tear film was tested by measuring tear film break up time (TFBUT, measurement of time taken for the tear film to break down). Furthermore, conditions of the cornea and fluorescent staining were identified by a slit test.
In this example, a method of measuring time until black spots appeared at fluorescent stained regions after applying one drop of sodium fluorescein to eyeballs. The black spots may appear within several seconds after blinking and occurs very quickly under the conditions of dry eye disease. That is, stability of the tear film was measured by measuring the tear film break up time (TFBUT, measurement of time taken for the tear film to break down).

[5] = test system: human corneal epithelial cells; assay: CCK-8 cell viability under high osmotic pressure (dry eye cell model); assay type: cell-based; details: HCEC, 450 mOsM
Experimental: In most dry eye diseases, tear decreases in the aqueous layer in an eyeball due to lacrimal hyposecretion or hyperevaporation of tear. In this case, osmotic pressure increases because water decreases while concentrations of proteins, lipids, carbohydrates, etc. contained in tear are constantly maintained. Based on this principle, in cellular level studies, NaCl is added to a cell culture medium to control the osmotic pressure, establish a dry eye disease model, and evaluate efficacy of a drug. Thus, in the present embodiment, by using a case with an osmotic pressure of 314 mOsM as a normal control and a case with a relatively high osmotic pressure of 450 mOsM as a dry eye disease model, effects of HAPLN1 protein on the relief of dry eye disease in human corneal epithelial cells under the high osmotic pressure conditions were verified. This is related to cell viability of human corneal epithelial cells.
In this experiments, a cell counting kit-8 (CCK-8), which allows a sensitive colorimetric assay used to measure cell viability and cytotoxicity, was used. That is, addition of WST-8, which is a highly water-soluble tetrazolium salt, to cells […] to produce an orange-colored formazan dye in the cells. Because the amount of the dye is related to the number of viable cells, a larger amount of the dye indicates more viable cells. […]

B1: hyaluronan and proteoglycan link protein 1 (HAPLN1) (protein, listed as Homo sapiens)
chain: MKSLLLLVLISICWADHLSDNYTLDHDRAIHIQAENGPHLLVEAEQAKVFSHRGGNVTLPCKFYRDPTAFGSGIHKIRIKWTKLTSDYLKEVDVFVSMGYHKKTYGGYQGRVFLKGGSDSDASLVITDLTLEDYGRYKCEVIEGLEDDTVVVALDLQGVVFPYFPRLGRYNLNFHEAQQACLDQDAVIASFDQLYDAWRGGLDWCNAGWLSDGSVQYPITKPREPCGGQNTVPGVRNYGFWDKDKSRYDVFCFTSNFNGRFYYLIHPTKLTYDEAVQACLNDGAQIAKVGQIFAAWKILGYDRCDAGWLADGSVRYPISRPRRRCSPTEAAVRFVGFPDKKHKLYGVYCFRAYN
- number of damaged (detached) corneal epithelial cells [1]: decreased
- scratched surface covered by cell proliferation and migration ([2]; 5 and 10 ng/ml, 30 hours, normal cells about 82%): about 60%
- cell proliferation and migration phenomena of scratched surfaces ([2]; 5 to 100 ng/ml, 30 hours): observed over the entire area
- area covered with migrated cells compared with Cyclosporin A ([2]; regardless of concentration, vs 0.1 μM Cyclosporin A): higher than 0.1 μM of Cyclosporin A
- expression levels of the inflammatory factors, compared with untreated groups ([3]; 10 to 100 ng/ml): lower than that of untreated groups
- expression levels of IL-17A, Fas ligand/CD178, FGF-7, FGF-19, Angiogenin, RBP-4, and Chitinase 3-like 1 [3]: reduced to the levels of normal cells
- expression levels of various inflammatory factors, relative to normal group (1.0) [3]: decreased to the level of the normal group or less
- increase of TFBUT compared with Restasis ([4]; after 10 days, regardless of the concentration of HAPLN1): more than by Restasis
- tear film break up time (TFBUT) ([4]; eye drop b.i.d., dry eye model less than 10 seconds): continuously increased
- tear film break up time (TFBUT) ([4]; high concentration (50 μg/ml)): ≥ 30 s
- cell viability, CCK-8 absorbances (450 nm) ([5]; 5 to 100 ng/ml, incubated 24 hours or 48 hours, compared with normal cell group (314 mOsM)): not less than or similar to that of a normal cell group; also recorded: increased
- cell viability (CCK-8) compared with control drug Cyclosporin A ([5]; regardless of concentration, vs 0.1 to 0.5 μM Cyclosporin A): higher than 0.1 to 0.5 μM of Cyclosporin A

From patent US20250152663A1, “COMPOSITION FOR PREVENTION OR TREATMENT OF DRY EYE DISEASE COMPRISING HAPLN1” (HAPLNSCIENCE INC., priority 2021, published 2025)
